Positions count from the first letter of the chain named. Values belong to the binder of their own block, whether it stands above or below them. Where no end group is shown, it is not given here. The star is where a group is joined. Maleimide‑PEG2‑Biotin = EZ Link Maleimide-PEG2-Biotin, O=C(CCCC[C@@H]1SC[C@@H]2NC(=O)N[C@@H]21)NCCOCCOCCNC(=O)CCN1C(=O)CC(*)C1=O
What was measured:
[1] = target: T1, Zap70 K369A (full length) (human, UniProt P43403 1-619, K369A); assay: ELISA
T1 sequence (looked up): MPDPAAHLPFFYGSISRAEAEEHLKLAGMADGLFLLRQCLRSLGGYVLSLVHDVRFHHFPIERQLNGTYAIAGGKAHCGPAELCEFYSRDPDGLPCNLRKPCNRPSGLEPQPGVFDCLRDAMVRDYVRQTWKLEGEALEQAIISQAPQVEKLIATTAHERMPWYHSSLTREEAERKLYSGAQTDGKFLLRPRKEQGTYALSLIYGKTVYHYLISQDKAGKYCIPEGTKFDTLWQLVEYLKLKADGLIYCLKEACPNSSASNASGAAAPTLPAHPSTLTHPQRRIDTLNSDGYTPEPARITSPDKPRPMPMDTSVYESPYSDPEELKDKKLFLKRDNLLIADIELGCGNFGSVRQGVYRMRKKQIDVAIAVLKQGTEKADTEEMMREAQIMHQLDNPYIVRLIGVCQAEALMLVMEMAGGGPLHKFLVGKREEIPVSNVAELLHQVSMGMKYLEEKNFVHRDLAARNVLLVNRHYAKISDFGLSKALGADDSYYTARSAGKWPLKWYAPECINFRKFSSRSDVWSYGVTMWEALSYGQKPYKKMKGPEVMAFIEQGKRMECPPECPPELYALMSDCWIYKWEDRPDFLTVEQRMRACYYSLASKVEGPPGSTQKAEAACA

[2] = target: T2, Zap70 K369R (full length) (human, UniProt P43403 1-619, K369R); assay: ELISA
T2 sequence (looked up): T1 sequence (looked up) with A369R

[3] = target: T3, Zap70 D461N (full length, kinase-inactive) (human, UniProt P43403 1-619, D461N); assay: ELISA
T3 sequence (looked up): T1 sequence (looked up) with A369K, D461N

[4] = target: T4, wild-type Zap70 (full-length human Zap70) (human, UniProt P43403 1-619); assay: ELISA
T4 sequence (looked up): T1 sequence (looked up) with A369K

[5] = target: T4, wild-type Zap70 (full-length human …); assay: BLI
[6] = target: T1, Zap70 K369A (full length); assay: BLI
[7] = target: T2, Zap70 K369R (full length); assay: BLI
[8] = target: T3, Zap70 D461N (full length, …); assay: BLI

B1: GST-phosphorylated CD3γ^CD (cytosolic domain of human CD3γ, amino acids 137-182, phosphorylated by Lck) (domain or fragment)
chain: GGAGQDGVRQSRASDKQTLLPNDQLYQPLKDREDDQYSHLQGNQLRRN
modifications: also: ITAM phosphorylated by Lck, sites not given here, GST fusion
binding result [1]: binds
binding result [2]: binds
binding result [3]: binds
binding result [4]: binds

binding result [5]: binds
binding result [6]: binds
binding result [7]: binds
binding result [8]: binds
B2: bio-phosphorylated CD3γ^CD (biotinylated, phosphorylated cysCD3γ^CD, human CD3γ amino acids 137-182) (domain or fragment)
chain: C(Maleimide‑PEG2‑Biotin)AGQDGVRQSRASDKQTLLPNDQLYQPLKDREDDQYSHLQGNQLRRN
modifications: also: ITAM phosphorylated by Lck, sites not given here
